Biological target: T1, Norwalk virus (NV) virus-like particle (Norwalk virus (genotype GI.1), UniProt Q83884 1-530; Q83885 1-212)
T1 construct: also called NV-VLP; NV-VLPs
T1 sequence 1: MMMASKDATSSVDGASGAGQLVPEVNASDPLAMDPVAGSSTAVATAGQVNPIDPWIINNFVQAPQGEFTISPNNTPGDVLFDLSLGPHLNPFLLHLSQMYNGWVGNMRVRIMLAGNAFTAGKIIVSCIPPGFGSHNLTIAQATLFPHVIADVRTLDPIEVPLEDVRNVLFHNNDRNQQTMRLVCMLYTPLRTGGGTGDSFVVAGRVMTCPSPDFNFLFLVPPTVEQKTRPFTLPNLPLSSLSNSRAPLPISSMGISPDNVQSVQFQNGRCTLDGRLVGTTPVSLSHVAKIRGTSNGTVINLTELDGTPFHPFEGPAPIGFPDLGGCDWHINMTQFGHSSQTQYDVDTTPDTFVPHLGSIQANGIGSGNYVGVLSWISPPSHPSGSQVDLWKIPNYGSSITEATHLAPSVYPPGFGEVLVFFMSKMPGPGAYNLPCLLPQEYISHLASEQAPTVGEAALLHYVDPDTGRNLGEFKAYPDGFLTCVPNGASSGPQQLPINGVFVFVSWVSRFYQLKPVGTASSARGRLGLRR
T1 sequence 2: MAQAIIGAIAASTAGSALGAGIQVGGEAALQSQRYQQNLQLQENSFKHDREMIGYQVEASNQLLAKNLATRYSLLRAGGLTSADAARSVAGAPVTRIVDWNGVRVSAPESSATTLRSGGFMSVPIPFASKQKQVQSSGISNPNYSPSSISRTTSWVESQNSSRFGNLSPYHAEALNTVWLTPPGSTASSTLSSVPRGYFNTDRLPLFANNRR
Test: capture ELISA: NV-VLP captured by immobilized polyclonal antibody, M13 phage antibody detection

B1: non-peptide displaying M13 phage (other)
chain: AETVESCLAKPHTENSFTNVWKDDKTLDRYANYEGCLWNATGVVVCTGDETQCYGTWVPIGLAIPENEGGGSEGGGSEGGGSEGGGTKPPEYGDTPIPGYTYINPLDGTYPPGTEQNPANPNPSLEESQPLNTFMFQNNRFRNRQGALTVYTGTVTQGTDPVKTYYQYTPVSSKAMYDAYWNGKFRDCAFHSGFNEDPFVCEYQGQSSDLPQPPVNAGGGSGGGSGGGSEGGGSEGGGSEGGGSEGGGSGGGSGSGDFDYEKMANANKGAMTENADENALQSDAKGKLDSVATDYGAAIDGFIGDVSGLANGNGATGDFAGSNSQMAQVGDGDNSPLMNNFRQYLPSLPQSVECRPFVFSAGKPYEFSIDCDKINLFRGVFAFLLYVATFMYVFSTFANILRNKES
notes: Whole phage particle used as negative control; also called M13 control phage
- binding result: no binding

— US20160061835A1 (BAYLOR COLLEGE OF MEDICINE, published 2016)
